Measured values: patent US20120064001A1

What was measured:
[1] = biological target: recombinant Mouse VEGF164 (mouse) (UniProt Q00731); test: SPR (Biacore T100); monomeric scFv over 1000 RU mouse VEGF164 on a CM5 chip; 1:1 fit
[2] = biological target: human VEGF-A (human) (UniProt P15692); test: SPR (Biacore T100); IgG over 100 RU human VEGF-A on a CM5 chip; 1:1 fit; 25°C
[3] = biological target: human VEGF-A (human) (UniProt P15692); test: indirect ELISA on coated growth factor; 2C3 at 1.0 ug/ml
[4] = biological target: mouse VEGF (isoform not given) (mouse) (UniProt Q00731); test: as above
Chain of mouse VEGF (isoform not given) (mouse) (Q00731 other isoform, or with tags, fused parts or gaps limits assumed): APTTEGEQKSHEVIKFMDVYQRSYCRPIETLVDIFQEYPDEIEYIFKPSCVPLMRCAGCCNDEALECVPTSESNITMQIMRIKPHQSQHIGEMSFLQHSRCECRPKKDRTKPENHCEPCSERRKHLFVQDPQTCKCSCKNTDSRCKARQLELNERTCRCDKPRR

[5] = biological target: VEGF-C; test: as above
[6] = biological target: VEGF-B; test: as above
[7] = biological target: PlGF; test: as above
[8] = biological target: VEGF-D; test: as above
[9] = biological target: human VEGF-A (human) (UniProt P15692); test: SPR (Biacore T100); IgG over 100 RU human VEGF-A on a CM5 chip; 1:1 fit; 37°C

Chain of human VEGF-A (human) (P15692 other isoform, or with tags, fused parts or gaps limits assumed): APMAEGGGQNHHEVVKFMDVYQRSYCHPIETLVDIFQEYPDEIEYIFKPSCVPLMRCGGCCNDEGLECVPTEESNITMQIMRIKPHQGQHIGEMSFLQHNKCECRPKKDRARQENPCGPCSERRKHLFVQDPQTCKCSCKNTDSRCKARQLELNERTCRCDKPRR

Kd [1] [nM] | Kd [2] [nM] | mean absorbance (absorbance at 450 nM) [3] | mean absorbance (absorbance at 450 nM) [4] | mean absorbance (absorbance at 450 nM) [5] | mean absorbance (absorbance at 450 nM) [6] | mean absorbance (absorbance at 450 nM) [7] | mean absorbance (absorbance at 450 nM) [8] | Kd [9] [nM] | Substance
10 | – | – | – | – | – | – | – | – | EJ173/112-C11 (r84/PGN311) scFv
– | 12.4 | 3.07 | 0.09 | 0.09 | 0.09 | 0.1 | 0.12 | 313 | murine 2C3 anti-VEGF antibody (IgG)
